In test [1] the target is T1, Sialic acid-binding immunoglobulin-like lectin 8 (SIGLEC-8), antigen of the Carterra SPR studies (UniProt Q9NYZ4 17-363, limits assumed). Description: Carterra SPR. In outline:
(§1)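 Binding of antibodies to SIGLEC-8 was followed by surface plasmon resonance on a Carterra instrument to obtain rate constants and dissociation constants. Before these kinetic runs, clones from synthetic antibody libraries were selected by four rounds of bead-based panning and clonal ELISA, then expressed and purified.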

For another test, the target named is T2, SIGLEC-3.
T2 construct: also called CD33
The experiment in a line: SPR cross-reactivity table. In outline: (§2)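 Clones from synthetic libraries, panned for four rounds using beads and screened by clonal ELISA, were expressed and purified. These anti-SIGLEC-8 antibodies were then checked by surface plasmon resonance on a Carterra instrument for cross-reactivity with related SIGLEC proteins. For each protein tested, a dissociation constant or binding result is given.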

The target of a further test is T3, SIGLEC-5 (limits assumed).
T3 construct: also called OB-BP-2
T3 receptor: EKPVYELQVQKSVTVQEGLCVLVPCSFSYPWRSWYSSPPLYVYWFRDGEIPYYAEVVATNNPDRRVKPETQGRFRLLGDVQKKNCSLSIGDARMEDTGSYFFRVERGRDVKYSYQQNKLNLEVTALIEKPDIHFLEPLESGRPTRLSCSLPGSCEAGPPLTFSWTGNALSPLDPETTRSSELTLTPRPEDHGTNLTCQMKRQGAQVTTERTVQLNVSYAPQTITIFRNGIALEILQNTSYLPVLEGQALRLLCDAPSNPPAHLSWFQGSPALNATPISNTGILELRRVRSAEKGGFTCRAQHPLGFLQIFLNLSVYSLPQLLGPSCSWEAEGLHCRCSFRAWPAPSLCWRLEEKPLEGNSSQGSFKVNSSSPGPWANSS
Description: SPR cross-reactivity table. In outline: as §2

The next test addresses T4, SIGLEC-6.
T4 construct: also called OB-BP-1
Description: SPR cross-reactivity table. In outline:
as §2

In another test the target is T5, SIGLEC-7.
T5 construct: also called p75/AIRM1
Description: SPR cross-reactivity table. In outline: as §2

The target in test [2] is T1, Sialic acid-binding immunoglobulin-like …. The experiment in a line: Carterra SPR kinetics, summary table. In outline: as §1
A general note: SPR reads the build-up and loss of mass on a sensor chip optically.

Test [3] has as its target T6, SIGLEC-8 transiently expressed on cells (UniProt Q9NYZ4 17-499, limits assumed).
T6 construct: whole, on cells; Two cassettes are described (P2A mVenus and direct mVenus fusion); also called the transient line; pTT5-SIGLEC-8 P2A mVenus
The experiment in a line: cell binding titration, transient SIGLEC-8 line.

The target of another test is T7, SIGLEC-2.
T7 construct: also called CD22
The experiment in a line: SPR cross-reactivity table. Put shortly: as §2

T7 sequence (chain, as listed by the source limits assumed): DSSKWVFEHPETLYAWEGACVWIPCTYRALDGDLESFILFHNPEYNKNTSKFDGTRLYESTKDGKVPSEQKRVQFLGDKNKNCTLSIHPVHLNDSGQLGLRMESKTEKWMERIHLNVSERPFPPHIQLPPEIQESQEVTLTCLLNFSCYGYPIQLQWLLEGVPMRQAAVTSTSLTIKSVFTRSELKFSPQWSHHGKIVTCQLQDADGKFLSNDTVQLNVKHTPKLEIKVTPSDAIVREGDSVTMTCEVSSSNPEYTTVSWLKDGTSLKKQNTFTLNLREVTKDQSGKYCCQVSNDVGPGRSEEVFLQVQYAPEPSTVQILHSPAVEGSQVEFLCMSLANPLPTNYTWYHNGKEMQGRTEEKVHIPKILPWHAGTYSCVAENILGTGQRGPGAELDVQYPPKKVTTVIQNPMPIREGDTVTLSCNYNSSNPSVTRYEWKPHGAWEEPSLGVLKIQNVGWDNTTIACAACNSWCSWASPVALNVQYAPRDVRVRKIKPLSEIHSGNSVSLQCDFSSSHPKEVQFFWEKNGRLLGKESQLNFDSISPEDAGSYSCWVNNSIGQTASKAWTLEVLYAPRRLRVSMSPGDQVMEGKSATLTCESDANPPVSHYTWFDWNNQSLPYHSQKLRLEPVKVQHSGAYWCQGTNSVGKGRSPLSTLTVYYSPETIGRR
T6 sequence (Q9NYZ4 17-499 limits assumed): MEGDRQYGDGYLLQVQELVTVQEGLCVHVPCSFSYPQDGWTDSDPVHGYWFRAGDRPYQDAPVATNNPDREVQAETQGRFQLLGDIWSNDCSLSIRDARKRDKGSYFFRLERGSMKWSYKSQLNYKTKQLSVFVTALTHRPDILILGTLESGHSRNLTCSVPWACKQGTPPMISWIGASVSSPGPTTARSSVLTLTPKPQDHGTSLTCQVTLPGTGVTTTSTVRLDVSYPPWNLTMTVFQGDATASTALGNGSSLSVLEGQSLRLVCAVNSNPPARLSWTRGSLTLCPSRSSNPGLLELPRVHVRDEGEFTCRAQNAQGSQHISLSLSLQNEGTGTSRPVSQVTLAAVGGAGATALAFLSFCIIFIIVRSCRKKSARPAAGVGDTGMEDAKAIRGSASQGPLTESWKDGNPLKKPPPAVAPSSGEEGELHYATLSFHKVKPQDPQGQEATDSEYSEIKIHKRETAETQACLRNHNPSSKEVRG
T5 sequence (receptor, as listed by the source limits assumed): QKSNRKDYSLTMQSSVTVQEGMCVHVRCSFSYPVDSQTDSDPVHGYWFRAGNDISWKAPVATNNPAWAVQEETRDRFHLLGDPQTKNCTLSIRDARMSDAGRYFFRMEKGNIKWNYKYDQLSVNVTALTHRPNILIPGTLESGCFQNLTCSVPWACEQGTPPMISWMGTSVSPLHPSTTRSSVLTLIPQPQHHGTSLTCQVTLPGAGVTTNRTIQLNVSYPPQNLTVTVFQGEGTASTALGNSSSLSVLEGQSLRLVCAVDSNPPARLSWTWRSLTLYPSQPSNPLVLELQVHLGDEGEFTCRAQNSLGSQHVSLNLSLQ
T2 sequence (receptor, as listed by the source limits assumed): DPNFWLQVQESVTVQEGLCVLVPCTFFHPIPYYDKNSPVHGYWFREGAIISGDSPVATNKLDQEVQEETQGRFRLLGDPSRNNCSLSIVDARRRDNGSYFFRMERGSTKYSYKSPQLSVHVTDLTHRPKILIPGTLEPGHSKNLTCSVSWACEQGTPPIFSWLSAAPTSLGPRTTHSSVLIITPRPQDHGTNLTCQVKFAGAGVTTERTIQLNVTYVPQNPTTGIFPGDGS
T4 sequence (receptor, as listed by the source limits assumed): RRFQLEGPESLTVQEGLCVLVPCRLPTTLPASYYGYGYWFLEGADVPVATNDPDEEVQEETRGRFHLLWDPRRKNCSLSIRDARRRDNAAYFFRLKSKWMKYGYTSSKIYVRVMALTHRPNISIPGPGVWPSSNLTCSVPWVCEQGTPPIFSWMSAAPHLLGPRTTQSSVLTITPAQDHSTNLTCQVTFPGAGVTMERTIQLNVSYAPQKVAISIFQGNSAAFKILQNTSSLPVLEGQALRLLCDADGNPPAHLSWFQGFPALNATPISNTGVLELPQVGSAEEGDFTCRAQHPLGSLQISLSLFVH
T1 sequence (Q9NYZ4 17-363 limits assumed): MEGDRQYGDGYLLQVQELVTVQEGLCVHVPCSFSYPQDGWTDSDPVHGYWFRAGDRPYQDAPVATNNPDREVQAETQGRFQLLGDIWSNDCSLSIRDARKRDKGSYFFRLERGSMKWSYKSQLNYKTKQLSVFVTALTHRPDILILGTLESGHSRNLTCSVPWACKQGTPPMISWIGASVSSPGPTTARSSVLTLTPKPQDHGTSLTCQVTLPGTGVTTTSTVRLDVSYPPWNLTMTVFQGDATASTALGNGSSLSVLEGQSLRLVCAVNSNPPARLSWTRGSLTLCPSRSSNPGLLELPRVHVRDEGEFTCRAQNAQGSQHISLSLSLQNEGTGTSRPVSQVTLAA

B1: SIGLEC-8-24 (antibody, human IgG1, kappa, V domains shown)
VH: EVQLLESGGGLVQPGGSLRLSCAASGFTFSSTAMSWVRQAPGKGLEWVSAISGTGGSTYYADSVKGRFTISRDNSKNTLYLQMNSLRAEDTAVYYCARESDYDYFGMDVWGQGTLVTVSS
VL: DIQMTQSPSSLSASVGDRVTITCRASQSVSSYVNWYQQKPGKAPKLLIYGASSLQDGVPSRFSGSGSGTDFTLTISSLQPEDFATYYCQQSYSVPVTFGGGTKVEIKR
notes: tested as expressed and purified mAb
As for B1, the Kd in test [1] came out at 0.822 nM; with SIGLEC-5, 33.7 nM. The binding result with SIGLEC-3, in the test with SIGLEC-6 and with SIGLEC-7 was “no binding” throughout. Further, the koff in test [2] came out at 0.000194 s⁻¹. In test [2], this molecule showed a kon of 236000 M⁻¹ s⁻¹. In test [3], this molecule yielded an EC50 of 1.05 nM.

B2: SIGLEC-8-48 (antibody, human IgG1, kappa, V domains shown)
VH: EVQLLESGGGLVQPGGSLRLSCAASGFNFRSYAMSWVRQAPGKGLEWVSGISGSGGSAYYADSVKGRFTISRDNSKNTLYLQMNSLRAEDTAVYYCAREGYNWAVDYWGQGTLVTVSS
VL: DIQMTQSPSSLSASVGDRVTITCRASQSISGFLNWYQQKPGKAPKLLIYGASILQSGVPSRFSGSGSGTDFTLTISSLQPEDFATYYCQQTYSTPRSFGGGTKVEIKR
notes: as for B1
For B2, the Kd in test [1] turned out to be 336 nM; in the test with SIGLEC-2 it was 629 nM. The binding result with SIGLEC-3, with SIGLEC-5, in the test with SIGLEC-6 and in the test with SIGLEC-7 was “no binding” in each case. The molecule further gave a half-maximal effective concentration (EC50) in test [3] of 12.3 nM.

B3: SIGLEC-8-19 (antibody, human IgG1, kappa, V domains shown)
VH: EVQLLESGGGLVQPGGSLRLSCAASGFTFRTYDMSWVRQAPGKGLEWVSAISGGGGSTYYADSVKGRFTISRDNSKNTLYLQMNSLRAEDTAVYYCARDSSYRWFSMDVWGQGTLVTVSS
VL: DIQMTQSPSSLSASVGDRVTITCRAGQSISTYLNWYQQKPGKAPKLLIYGASKLQSGVPSRFSGSGSGTDFTLTISSLQPEDFATYYCQQTYRTPLTFGGGTKVEIKR
notes: as for B1
B3: the Kd in test [1] amounted to 4.86 nM; with SIGLEC-5, 14.5 nM; with SIGLEC-6, 1070 nM. Also, the binding result with SIGLEC-2, in the test with SIGLEC-3 and with SIGLEC-7 was “no binding” in each case.

B4: SIGLEC-8-7 (antibody, human IgG1, kappa, V domains shown)
VH: EVQLLESGGGLVQPGGSLRLSCAASGFTFSNHAMAWVRQAPGKGLEWVSGISGSAASTYYADSVKGRFTISRDNSKNTLYLQMNSLRAEDTAVYYCARDLLALPYAFDIWGQGTLVTVSS
VL: DIQMTQSPSSLSASVGDRVTITCRASQSTSSYLSWYQQKPGKAPKLLIYAVSTLQSGVPSRFSGSGSGTDFTLTISSLQPEDFATYYCQQSYSVPLTFGGGTKVEIKR
notes: as for B1
As to B4, the Kd stood at 1.12 nM in test [1] and 123 nM in the test with SIGLEC-5. Besides, the binding result with SIGLEC-2, with SIGLEC-3, with SIGLEC-6 and with SIGLEC-7 was “no binding” throughout. The same molecule had an EC50 in test [3] of 0.813 nM.

B5: SIGLEC-8-32 (antibody, human IgG1, kappa, V domains shown)
VH: EVQLLESGGGLVQPGGSLRLSCAASGFTLSSYVMSWVRQAPGKGLEWVSAISGSGATTYYADSVKGRFTISRDNSKNTLYLQMNSLRAEDTAVYYCAREVAGIFDYWGQGTLVTVSS
VL: DIQMTQSPSSLSASVGDRVTITCRSSQSISTYLNWYQQKPGKAPKLLIYAASYLQSGVPSRFSGSGSGTDFTLTISSLQPEDFATYYCQQSYDTPLTFGGGTKVEIKR
notes: as for B1
Turning to B5, the Kd turned out to be 19.2 nM in test [1]; 128 nM with SIGLEC-2; 4.2 nM with SIGLEC-5; 5.3 nM with SIGLEC-6; 17.4 nM with SIGLEC-7. The molecule also gave an EC50 in test [3] of 3.81 nM.

B6: SIGLEC-8-17 (antibody, human IgG1, kappa, V domains shown)
VH: EVQLLESGGGLVQPGGSLRLSCAASGFPFSNYAMGWVRQAPGKGLEWVSGISASGSSTYYADSVKGRFTISRDNSKNTLYLQMNSLRAEDTAVYYCAREDSGKYLSLDYWGQGTLVTVSS
VL: DIQMTQSPSSLSASVGDRVTITCRTSQSISSHLNWYQQKPGKAPKLLIYAASSLQPGVPSRFSGSGSGTDFTLTISSLQPEDFATYYCQQSYNTPPTFGGGTKVEIKR
notes: as for B1
In the case of B6, the Kd in test [1] is 8.89 nM; in the test with SIGLEC-2 it was 836 nM. Further, the binding result with SIGLEC-3, with SIGLEC-5, in the test with SIGLEC-6 and with SIGLEC-7 was “no binding” throughout. The EC50 in test [3] came to 1.25 nM.

B7: SIGLEC-8-56 (antibody, human IgG1, kappa, V domains shown)
VH: EVQLLESGGGLVQPGGSLRLSCAASGLTFSSSAMSWVRQAPGKGLEWVSAISGYGGSTYYADSVKGRFTISRDNSKNTLYLQMNSLRAEDTAVYYCAREAGYYYYGMDVWGQGTLVTVSS
VL: DIQMTQSPSSLSASVGDRVTITCRASQKITSYLNWYQQKPGKAPKLLIYAASSLHDGVPSRFSGSGSGTDFTLTISSLQPEDFATYYCQQSYGTPLTFGGGTKVEIKR
notes: as for B1
For the molecule B7, the Kd was 0.271 nM in test [1]; 43.2 nM in the test with SIGLEC-2; 60.5 nM with SIGLEC-3; 3.4 nM in the test with SIGLEC-5; 18 nM with SIGLEC-7. For the same molecule, in test [2], the koff came to 0.000156 s⁻¹. In addition, the kon in test [2] turned out to be 576000 M⁻¹ s⁻¹. The same molecule yielded an EC50 in test [3] of 1.02 nM.

B8: SIGLEC-8-8 (antibody, human IgG1, kappa, V domains shown)
VH: EVQLLESGGGLVQPGGSLRLSCAASGFTFNYYALSWVRQAPGKGLEWVSGISGSGGTTFYADSVKGRFTISRDNSKNTLYLQMNSLRAEDTAVYYCARRGGWYSFDIWGQGTLVTVSS
VL: DIQMTQSPSTLSAYVGDRVTITCRASQIISTYLNWYQQKPGKAPKLLIYSASSLQSGVPSRFSGSGSGTDFTLTISSLQPEDFATYYCQQSFSAPDTFGGGTKVEIKR
notes: as for B1
On to B8, for which the Kd in test [1] stood at 1.65 nM; with SIGLEC-2, 4300 nM; with SIGLEC-5 it was 39.3 nM. Further, the binding result with SIGLEC-3 and in the test with SIGLEC-7 was “no binding” throughout. For the same molecule, the EC50 in test [3] came to 1.3 nM.

B9: SIGLEC-8-10 (antibody, human IgG1, kappa, V domains shown)
VH: EVQLLESGGGLVQPGGSLRLSCAASGFTFNNYAMAWVRQAPGKGLEWVSAISGSGSSPYYADSVKGRFTISRDNSKNTLYLQMNSLRAEDTAVYYCARDQIVAMDVWGQGTLVTVSS
VL: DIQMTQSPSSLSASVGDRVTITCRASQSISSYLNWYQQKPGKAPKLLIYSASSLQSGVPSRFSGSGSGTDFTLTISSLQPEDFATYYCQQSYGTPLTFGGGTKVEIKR
notes: as for B1
As for B9, the results for the Kd (in test [1]; with SIGLEC-2) were 3.17 nM and 755 nM, respectively. Besides, the binding result with SIGLEC-3, in the test with SIGLEC-5, with SIGLEC-6 and in the test with SIGLEC-7 was “no binding” throughout. This molecule registered an EC50 in test [3] of 1.09 nM.

B10: SIGLEC-8-54 (antibody, human IgG1, kappa, V domains shown)
VH: EVQLLESGGGLVQPGGSLRLSCAASGFTFNNYAMAWVRQAPGKGLEWVSAISGSGSSPYYADSVKGRFTISRDNSKNTLYLQMNSLRAEDTAVYYCARDQIVAMDVWGQGTLVTVSS
VL: DIQMTQSPSSLSASVGDRVTITCRGSQSISSYLNWYQQKPGKAPKLLIYDASSLQSGVPSRFSGSGSGTDFTLTISSLQPEDFATYYCQQSYRTPITFGGGTKVEIKR
notes: as for B1
B10: the Kd turned out to be 1.06 nM in test [1], 19.9 nM with SIGLEC-5 and 12 nM with SIGLEC-6. Moreover, the binding result in the test with SIGLEC-2, with SIGLEC-3 and in the test with SIGLEC-7 was “no binding” in each case. For the same molecule, in test [3], the EC50 came out at 0.527 nM.

B11: SIGLEC-8-34 (antibody, human IgG1, kappa, V domains shown)
VH: EVQLLESGGGLVQPGGSLRLSCAASGFTFSRHAMGWVRQAPGKGLEWVSSISGSGYSTYYADSVKGRFTISRDNSKNTLYLQMNSLRAEDTAVYYCARENGQYYYGMDVWGQGTLVTVSS
VL: DIQMTQSPSSLSASVGDRVTITCRASQTITTYLNWYQQKPGKAPKLLIYAASHLQTGVPSRFSGSGSGTDFTLTISSLQPEDFATYYCQQSYSTPLSFGGGTKVEIKR
notes: as for B1
With B11, the Kd in test [1] is 9.23 nM; in the test with SIGLEC-2 it was 208 nM; with SIGLEC-3, 62.2 nM; with SIGLEC-5 it was 5.5 nM; with SIGLEC-6, 6.9 nM. The binding result with SIGLEC-7 is recorded as “no binding”. Besides, a half-maximal response in test [3] (EC50) required 1.95 nM.

The term Kd denotes the free concentration of one partner at which half of the binding sites on the other are occupied at equilibrium, for simple one-to-one binding. A lower Kd goes with higher affinity. The term koff denotes the rate constant with which the complex falls apart. A high value points to fast dissociation. What is called kon is the rate constant with which the complex forms. In general, EC50 refers to the midpoint of the concentration-response curve.

The values above are taken from US20260001953A1 (TWIST BIOSCIENCE, published 2026).
